Source: US20170044515

Tests used:
[1] = biological target: T1, kB1-NHV (not fully specified)
T1 chain: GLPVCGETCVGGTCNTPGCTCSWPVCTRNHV

[2] = biological target: T2, Histatin-1b
T2 chain: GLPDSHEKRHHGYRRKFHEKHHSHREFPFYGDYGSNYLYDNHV

[3] = biological target: T3, SFTI-NHV
T3 chain: GRCTKSIPPICFPNHV

[4] = biological target: T4, Galanin substrate (H. sapiens)
T4 chain: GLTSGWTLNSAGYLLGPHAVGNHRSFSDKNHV

[5] = biological target: T5, kB1-DHV (not fully specified)
T5 chain: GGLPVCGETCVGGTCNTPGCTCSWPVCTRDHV

[6] = biological target: T6, kB1-AHV (not fully specified)
T6 chain: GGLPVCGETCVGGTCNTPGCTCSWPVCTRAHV

[7] = biological target: MrIA conotoxin substrate
[8] = biological target: T7, GV-10
T7 chain: GLPPPIFNHV

[9] = biological target: T8, kB1-NH (not fully specified)
T8 chain: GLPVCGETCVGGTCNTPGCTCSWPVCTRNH

[10] = biological target: T9, Apelin substrate (H. sapiens)
T9 chain: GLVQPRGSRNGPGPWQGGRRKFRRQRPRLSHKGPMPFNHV

[11] = biological target: T10, Thanatin analog
T10 chain: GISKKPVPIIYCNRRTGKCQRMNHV

[12] = biological target: modified GFP ending with Asn-His-Val at the C-terminus and starting with Gly-Ile at the N-terminus
[13] = biological target: T11, EV-9
T11 chain: EINSTEINHV

[14] = biological target: T12, SFTI-DHV
T12 chain: GRCTKSIPPICFPDHV

[15] = biological target: T13, kB1-QHV (not fully specified)
T13 chain: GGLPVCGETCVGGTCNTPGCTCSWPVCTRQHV

[16] = biological target: T14, SV-10
T14 chain: SLPPPIFNHV

[17] = biological target: T15, Salusin substrate (H. sapiens)
T15 chain: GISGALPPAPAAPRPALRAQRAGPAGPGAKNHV

[18] = biological target: T16, HV-10
T16 chain: HLPPPIFNHV

[19] = biological target: T17, Histatin-3a
T17 chain: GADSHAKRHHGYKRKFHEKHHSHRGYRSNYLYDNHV

[20] = biological target: T18, kB1-N* (not fully specified)
T18 chain: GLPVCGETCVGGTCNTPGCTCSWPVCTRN

[21] = biological target: T19, Rat neuromedin U substrate
T19 chain: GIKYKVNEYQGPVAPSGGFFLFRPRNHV

[22] = biological target: T20, kB1-NHVIA (not fully specified)
T20 chain: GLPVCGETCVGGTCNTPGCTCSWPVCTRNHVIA

[23] = biological target: T21, Histatin-1a
T21 chain: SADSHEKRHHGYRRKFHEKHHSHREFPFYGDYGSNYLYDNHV

[24] = biological target: T22, kB1-NHVI (not fully specified)
T22 chain: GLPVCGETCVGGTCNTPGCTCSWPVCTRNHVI

[25] = biological target: T23, RV-10
T23 chain: RVTRPVNHV

[26] = biological target: T24, SA-kB1-NHV
T24 chain: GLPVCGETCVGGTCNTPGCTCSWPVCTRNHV

[27] = biological target: T25, kB1-EHV (not fully specified)
T25 chain: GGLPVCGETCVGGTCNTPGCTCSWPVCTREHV

[28] = biological target: T26, Neuromedin U substrate (H. sapiens)
T26 chain: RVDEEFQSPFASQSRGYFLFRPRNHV

[29] = biological target: T27, Histatin-3b
T27 chain: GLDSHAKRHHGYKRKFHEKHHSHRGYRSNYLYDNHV

B1: Jack bean legumain (Takara Bio) (protein)
chain: EVGTRWAVLVAGSNGYGNYRHQADVCHAYQLLIKGGVKEENIVVFMYDDIAYNAMNPRPGVIINHPQGPDVYAGVPKDYTGEDVTPENLYAVILGDKSKVKGGSGKVINSNPEDRIFIFYSDHGGPGVLGMPNAPFVYAMDFIDVLKKKHASGGYKEMVIYIEACESGSIFEGIMPKDLNIYVTTASNAQENSFGTYCPGMNPPPPEEYVTCLGDLYSVSWMEDSETHNLKRETVQQQYQSVRKRTSNSNSYRFGSHVMQYGDTNITAEKLYLYHGFDPATVNFPPHNGNLEAKMEVVNQRDAELLFMWQMYQRSNHQPEKKTHILEQITETVKHRNHLDGSVELIGVLLYGPGKSSSVLHSVRAPGLPLVDDWTCLKSMVRVFETHCGSLTQYGMKHMRAFGNVCNSGVSKASMEEACKAACGGYDAGLLYPSNTGYSA
Q: With B1 as the protein, how does the “hydrolysis or cyclization of kB1-NHV (MS)” value [1] read?
A: commercial jack bean legumain was unable to cyclize kB1-NHV and generated only the linear form of kB1

B2: butelase 1 (active enzyme purified from pods of Clitoria ternatea) (protein)
chain: VEGTRWAVLVAGSKGYVNYRHQADVCHAYQILKKGGLKDENIIVFMYDDIAYNESNPHPGVIINHPYGSDVYKGVPKDYVGEDINPPNFYAVLLANKSALTGTGSGKVLDSGPNDHVFIYYTDHGGAGVLGMPSKPYIAASDLNDVLKKKHASGTYKSIVFYVESCESGSMFDGLLPEDHNIYVMGASDTGESSWVTYCPLQHPSPPPEYDVCVGDLFSVAWLEDCDVHNLQTETFQQQYEVVKNKTIVALIEDGTHVVQYGDVGLSKQTLFVYMGTDPANDNNTFTDKNSLGTPRKAVSQRDADLIHYWEKYRRAPEGSSRKAEAKKQLREVMAHRMHIDN
Q: B2 was tested. Which Yield (%) of cyclization [2] did it give?
A: 90%

Q: And the Cyclization yield (%) at 0.8 h [3]?
A: > 95%

Q: And the Km [3]?
A: 51 µM

Q: What about the “catalytic efficiency (kcat/Km)” value [3] of the same protein?
A: catalytic efficiency of 11,700 M^-1 s^-1

Q: And the kcat [3]?
A: 0.6 s⁻¹

Q: And the kcat/Km [3]?
A: 10700 M⁻¹ s⁻¹

Q: And the Cyclization yield (%) at 0.8 h [1]?
A: > 95%

Q: And the Km [1]?
A: 213 µM

Q: And the “conversion into cyclic kB1 within 6 min (RP-HPLC)” value [1]?
A: converted about 40% of kB1-NHV into cyclic kB1 within 6 min

Q: What about the kcat [1] of the same protein?
A: 2.28 s⁻¹

Q: And the kcat/Km [1]?
A: 10700 M⁻¹ s⁻¹

Q: And the Km [4]?
A: 34.2 µM

Q: And the “cyclization yield within 5 min” value [4]?
A: butelase 1 achieved >95% cyclization yields within 5 min for all peptides tested

Q: And the kcat [4]?
A: 3.54 s⁻¹

Q: What about the kcat/Km [4] of the same protein?
A: 103000 M^-1 S^-1

Q: And the Cyclization yield (%) at 4 h [5]?
A: < 10%

Q: What about the “cyclization rate against kB1-NHV” value [5] of the same protein?
A: at about a hundred-fold slower than kB1-NHV

Q: What about the Cyclization yield (%) at 4 h [6] of the same protein?
A: < 1%

Q: And the “cyclization after 4 h (MS)” value [6]?
A: No cyclization of kB1-AHV, kB1-QHV or kB1-EHV was observed after incubating with butelase 1 for 4 h

Q: What about the Km [7] of the same protein?
A: 7.9 µM

Q: And the Yield (%) of cyclization [7]?
A: 95%

Q: What about the kcat [7] of the same protein?
A: 2.2 s⁻¹

Q: And the kcat/Km [7]?
A: 278000 M⁻¹ s⁻¹

Q: What about the Yield (%) of dimerization and cyclization, product Cyclo([..])2 [8] of the same protein?
A: 50%

Q: What about the Cyclization yield (%) at 4 h [9] of the same protein?
A: < 5%

Q: What about the Km [10] of the same protein?
A: 6.7 µM

Q: And the “cyclization yield within 5 min” value [10]?
A: butelase 1 achieved >95% cyclization yields within 5 min for all peptides tested

Q: And the kcat [10]?
A: 5.78 s⁻¹

Q: What about the kcat/Km [10] of the same protein?
A: 859000 M^-1 S^-1

Q: And the Yield (%) of cyclization [11]?
A: 95%

Q: And the “cyclization yield within 15 min (SDS page, ESI-MS)” value [12]?
A: The cyclization reaction completed within 15 min with >90% yield

Q: What about the Yield (%) of dimerization and cyclization, products Cyclo([..]), [..] [13] of the same protein?
A: 20%

Q: What about the Cyclization yield (%) at 4 h [14] of the same protein?
A: < 10%

Q: What about the Cyclization yield (%) at 4 h [15] of the same protein?
A: < 1%

Q: And the “cyclization after 4 h (MS)” value [15]?
A: No cyclization of kB1-AHV, kB1-QHV or kB1-EHV was observed after incubating with butelase 1 for 4 h

Q: What about the Yield (%) of dimerization and cyclization, product Cyclo([..])2 [16] of the same protein?
A: 50%

Q: And the “cyclization yield within 5 min” value [17]?
A: butelase 1 achieved >95% cyclization yields within 5 min for all peptides tested

Q: And the Yield (%) of dimerization and cyclization, product Cyclo([..])2 [18]?
A: 50%

Q: And the Yield (%) of cyclization [19]?
A: 90%

Q: What about the Cyclization yield (%) at 4 h [20] of the same protein?
A: < 10%

Q: And the Km [21]?
A: 20.2 µM

Q: And the “cyclization yield within 5 min” value [21]?
A: butelase 1 achieved >95% cyclization yields within 5 min for all peptides tested

Q: What about the kcat [21] of the same protein?
A: 26.6 s⁻¹

Q: What about the kcat/Km [21] of the same protein?
A: 1.31e+06 M^-1 S^-1

Q: And the Cyclization yield (%) at 3 h [22]?
A: > 95%

Q: And the Km [22]?
A: 129 µM

Q: What about the kcat [22] of the same protein?
A: 0.38 s⁻¹

Q: What about the kcat/Km [22] of the same protein?
A: 2970 M⁻¹ s⁻¹

Q: And the Yield (%) of cyclization [23]?
A: 90%

Q: And the Cyclization yield (%) at 2 h [24]?
A: > 95%

Q: What about the Km [24] of the same protein?
A: 62 µM

Q: What about the kcat [24] of the same protein?
A: 0.25 s⁻¹

Q: What about the kcat/Km [24] of the same protein?
A: 4030 M⁻¹ s⁻¹

Q: What about the Yield (%) of dimerization and cyclization, products Cyclo(RVTRPVN), Cyclo(RVTRPVN)2 [25] of the same protein?
A: 20%

Q: What about the Cyclization yield (%) at 0.2 h [26] of the same protein?
A: > 95%

Q: What about the Km [26] of the same protein?
A: 31.5 µM

Q: And the “fold change of catalytic efficiency against kB1-NHV” value [26]?
A: a 50-fold improvement in the catalytic efficiency of SA-kB1-NHV compared to kB1-NHV

Q: And the kcat [26]?
A: 17.1 s⁻¹

Q: And the kcat/Km [26]?
A: 542000 M⁻¹ s⁻¹

Q: And the Cyclization yield (%) at 4 h [27]?
A: < 1%

Q: What about the “cyclization after 4 h (MS)” value [27] of the same protein?
A: No cyclization of kB1-AHV, kB1-QHV or kB1-EHV was observed after incubating with butelase 1 for 4 h

Q: What about the Km [28] of the same protein?
A: 8.7 µM

Q: And the “cyclization yield within 5 min” value [28]?
A: butelase 1 achieved >95% cyclization yields within 5 min for all peptides tested

Q: What about the kcat [28] of the same protein?
A: 5.78 s⁻¹

Q: And the kcat/Km [28]?
A: 664000 M^-1 S^-1

Q: And the Yield (%) of cyclization [29]?
A: 90%
